Patent publication US10877024B2, “Methods of determining interferon having direct inhibitory effects on tumors and uses thereof” (SUPERLAB FAR EAST LIMITED, priority 2015, dated 2020)
Read-outs that look alike come from different tables or passages of the source.

Columns and labels:
[1] = tested on: A549 tumor cells; experiment: Cell viability, MTT assay, 1-6 days; format: cell-based, human; details: 10 μg/ml
Experimental: The cell survival rate was evaluated in a standard MTT assay [3-(4,5-dimethylthiazol-2-yl)-2,5-diphenyltetrazolium bromide assay, Sigma, St. Louis, Mo.). For the assay, about 20 μl MTT (at 4 mg/ml) was added to each well. The cells were incubated at 37° C. for 4 hr. After that, the supernatant of each well was drawn off carefully and then an equal volume (150 microliter) of dimethyl sulfoxide (DMSO) was added to each well and mixed thoroughly on a shaker for 15 min. The absorbance from the plates was read at 595 nm with a Thermo Scientific Microplate Reader (Thermo Fisher Scientific Inc., Lowell, Mass.). The relative cell viability was calculated as follows: Cell viability=(Treated group(OD595) minus blank(OD595))/(Control group(OD595) minus blank(OD595))×100%.

[2] = tested on: SW620 tumor cells; experiment: Cell viability, MTT assay, 1-6 days; format: cell-based, human; details: 10 μg/ml
[3] = tested on: A549 xenograft tumors; experiment: Tumor growth of A549 xenografts in nude mice; format: in vivo, BALB/c nude mice; details: 100 μg/100 μl per mouse intratumorally, every other day, 12 times; vs PBS
Experimental: This experiment was conducted in accordance to the National Institutes of Health Guide for the Care and Use of Laboratory Animals. Female BALB/c nude mice, 4-5 weeks old, were obtained from Shanghai Experimental Animal Center (Shanghai, China). About 5×10^6 A549 cells were subcutaneously injected into each mouse to establish xenograft tumors. […] The tumors were measured every three (3) days and the tumor volumes were calculated as follows: tumor volume (mm^3)=(length×width^2)/2. Data are shown as Mean±SD (n=8).

[4] = tested on: LRP6; experiment: qPCR of Wnt-related co-receptor mRNA; format: cell-based, human; details: 10 μg/ml, 24 hr
Experimental: The regulation of LRP6/FZD6 by rSIFN-co was investigated. This was conducted by qPCR as performed in Example 9. […] After 24 hr of treatment, total cellular mRNA was isolated using TRIZOL Reagent, and cDNA was subjected to qPCR using specific primers of LRP6 and FZD6. The primers used were: LRP6 sense primer: 5′-[…]-3′ (SEQ ID NO: 4) and antisense primer: 5′-[…]-3′ (SEQ ID NO: 5), and FZD6 sense primer: 5′-[…]-3′ (SEQ ID NO: 6) and antisense primer: 5′-[…]-3′ (SEQ ID NO: 7). Experiments were conducted in triplicate and normalized with the Mock control group. Results were recorded as relative mRNA level of either LRP6 or FZD6 relative to GAPDH.

[5] = tested on: DKK-3; experiment: qPCR of tumor suppressor gene; format: cell-based, human; details: A549 cells, 10 mcg/ml, 24 hr
Experimental: After 24 hr of treatment, total cellular mRNA was isolated using TRIZOL Reagent, and cDNA was synthesized, and further subjected to qPRC using specific primers for DKK3, KLF4 and BATF2.
The experiment was conducted in triplicate and normalized with the mock control group.

[6] = tested on: procaspase-3, cleaved caspase-3, procaspase-8, cleaved caspase-8, PARP; experiment: Apoptosis-related molecular markers by Western Blot; format: cell-based, human; details: A549 and SW620 cells, 24 hr or 48 hr; interferons 10 mcg/ml
Description: Thereafter, apoptosis-related molecular markers were monitored by Western Blot. The primary antibodies used were mouse monoclonal anti-beta-tubulin (1:2000, Cat #: CW0098A) and mouse monoclonal anti-GAPDH (1:2000, Cat #: CW0100A) (Kangwei Biotechnology, China); mouse monoclonal anti-PARP (1:1000, Cat #: sc-2007, Santa Cruz Biotechnology, Inc.); rabbit monoclonal anti-procaspase 3 (1:1000, Cat #: 9665), and rabbit polyclonal anti-cleaved caspase 3 (1:1000, Cat #: 9661) (Cell Signaling Technology, USA); goat polyclonal anti-procaspase 8 (1:1000, Cat #: sc-6136, Santa Cruz Biotechnology, Inc); rabbit monoclonal anti-cleaved caspase 8 (1:1000, Cat #: 9496) (Cell Signaling Technology, USA).

[7] = tested on: STAT1 (Tyr701), STAT2 (Tyr690), STAT3(Tyr705); experiment: STAT phosphorylation by Western Blot; format: cell-based, human; details: A549 cells and Hela cells, 10 μg/ml, 0-240 minutes
Description: After treatment, the cells were collected, cellular proteins were extracted and loaded onto SDS-PAGE […] for Western Blot analysis to observe the phosphorylation of STAT1 (Tyr701), STAT2 (Tyr690), and STAT3(Tyr705). GAPDH was used as a loading control.
The primary antibodies used were: STAT1 (1:1000, Cat #: 9175S), Tyr701 phosphorylated-STAT1 (1:1000, Cat #: 9167S), STAT2 (1:500, Cat #4594), Tyr690 phosphorylated-STAT2 (1:1000, Cat #: 441S), STAT3 (1:1000, Cat #: 9132), Tyr705 phosphorylated-STAT3 (1:1000, Cat #: 9145S). Anti-mouse (Cat #:sc-2005) or rabbit (Cat #: sc-2004) or goat (Cat #: sc-2020) HRP-conjugated secondary antibodies (Santa Cruz Technology, Santa Cruz, Calif.) were used at concentrations of 1:2000. Blots were visualized by use of Luminescence/Fluorescence Imaging LAS4000 System (GE Healthcare Life Sciences, USA) with super signal west pico chemiluminescnet substrate kit (Thermo Scientific, USA).

[8] = tested on: phosphorylation of STAT1 (Tyr701), STAT2 (Tyr690), and STAT3 (Tyr705); experiment: p-STAT induction after B18R pre-incubation, Western blot; format: cell-based, human; details: IFN 1 ng/ml, B18R 10 ng/ml, 30 min, compared to IFNα-2b
[9] = tested on: human lung cancer SPC-A4 xenografts; details: for TV(mm^3, mean ± SD) (D 0): day 0; for % Inhibition / RTV (mean ± SD) / T/C (%) / TV(mm^3, mean ± SD) (D 21): day 21
Experimental: Under sterile conditions, well-grown tumors were cut into 1.5 mm^3 fragments and one such fragment was injected by trocar needle into the right flank of each study animal. […] Individual tumor size (length and width) was measured twice per week with microcalipers. Tumor volume (V) was calculated using the formula: V=(length×width^2)/2. Individual relative tumor volume (RTV) was calculated using the formula: RTV=Vt/V0, where Vt is the tumor volume on the day of measurement and V0 is the tumor volume on the day of first treatment. Therapeutic effect of the test article or control article was expressed in terms of T/C (%), using the formula: T/C (%)=(mean RTV of the treated group/mean RTV of the control group)×100%; and in terms of % Inhibition, using the formula: % Inhibition=100%−T/C %.
The 1.5 mm^3 fragments were then used for s.c. implantation into the test animals. The body weight of the animals averaged 22±2 g at dose initiation.

[10] = 0.05 mg/mouse i.t. every other day
[11] = 0.10 mg/mouse i.t. every other day
[12] = 0.15 mg/mouse i.t. every other day

B1: rSIFN-co: Recombinant super-compound interferon; amino acid sequence SEQ ID NO: 1 (same as INFERGEN), encoded by novel nucleotide sequence SEQ ID NO: 2 (protein)
chain: MCDLPQTHSLGNRRALILLAQMRRISPFSCLKDRHDFGFPQEEFDGNQFQKAQAISVLHEMIQQTFNLFSTKDSSAAWDESLLEKFYTELYQQLNDLEACVIQEVGVEETPLMNVDSILAVKKYFQRITLYLTEKKYSPCAWEVVRAEIMRSFSLSTNLQERLRRKE
modifications: Amino acid sequence of recombinant interferon
[1]
  cell viability over time (MTT): also apparent for A549 cells for only about the first 3 days of treatment
[2]
  cell viability over time (MTT): strongly decreased cell viability of SW620 cells in a time-dependent manner
[3]
  inhibition of tumor growth (tumor volume): almost completely inhibit growth of established tumors
[4]; A549 cells
  relative expression of the LRP6 mRNA: significant reduction
[4]; HT-29 cells
  relative expression of the LRP6 mRNA: significant reduction
[4]; SW620 cells
  relative expression of the LRP6 mRNA: significant reduction
[5]
  relative mRNA expression level of DKK-3: dramatically increased
[6]
  level of cleaved caspase-3 and cleaved caspase-8: neither of the interferons, IFN alpha-2b nor rSIFN-co, caused any reduction in the level of procaspase-3 or procaspase-8 or PARP, or induced any enhancement
  level of procaspase-3, procaspase-8 and PARP: neither of the interferons, IFN alpha-2b nor rSIFN-co, caused any reduction
[7]
  phosphorylation patterns for STAT1, STAT2 and STAT3 (JAK/STATs signaling level): no different from that mediated by IFN alpha-2b
[8]; A549 cells
  induction of phosphorylation on STAT1/2/3 after B18R pre-incubation: greater induction of phosphorylation on STAT1/2/3
[8]; Hela cells
  induction of phosphorylation on STAT1/2/3 after B18R pre-incubation: greater induction of phosphorylation on STAT1/2/3
[9]; [10]
  mortality: one mouse in the 0.05 mg rSIFN-co-treated group died on day 17
  TV(mm^3, mean ± SD) (D 0): 170 ± 41 mm^3
  % Inhibition: 63.68%
  RTV (mean ± SD): 15.45 ± 9.07
  T/C (%): 36.32%
  TV(mm^3, mean ± SD) (D 21): 2244 ± 1043 mm^3
[9]; [11]
  TV(mm^3, mean ± SD) (D 0): 168 ± 49 mm^3
  % Inhibition: 64.95%
  RTV (mean ± SD): 14.91 ± 11.19
  T/C (%): 35.05%
  TV(mm^3, mean ± SD) (D 21): 2388 ± 1544 mm^3
[9]; [12]
  TV(mm^3, mean ± SD) (D 0): 169 ± 40 mm^3
  % Inhibition: 67.75%
  RTV (mean ± SD): 13.72 ± 3.96
  T/C (%): 32.25%
  TV(mm^3, mean ± SD) (D 21): 2284 ± 653 mm^3
[9]; 0.05-0.15 mg/mouse i.t. every other day, 21 days
  tolerability, signs of toxicity or weight loss: no signs of toxicity or weight loss were observed
